In patent publication US20050176073A1, “Cell proliferation associated with CCX CKR expression” (ChemoCentryx, Inc., priority 2004, published 2005):
Values belong to the molecule of their own block, whether it stands above or below them.

How the values were obtained:
CCX CKR [1] = target: T1, CCX CKR (Homo sapiens, UniProt Q9NPB9); assay: Small molecule modulators of CCX CKR function
T1 sequence (Q9NPB9 1-350): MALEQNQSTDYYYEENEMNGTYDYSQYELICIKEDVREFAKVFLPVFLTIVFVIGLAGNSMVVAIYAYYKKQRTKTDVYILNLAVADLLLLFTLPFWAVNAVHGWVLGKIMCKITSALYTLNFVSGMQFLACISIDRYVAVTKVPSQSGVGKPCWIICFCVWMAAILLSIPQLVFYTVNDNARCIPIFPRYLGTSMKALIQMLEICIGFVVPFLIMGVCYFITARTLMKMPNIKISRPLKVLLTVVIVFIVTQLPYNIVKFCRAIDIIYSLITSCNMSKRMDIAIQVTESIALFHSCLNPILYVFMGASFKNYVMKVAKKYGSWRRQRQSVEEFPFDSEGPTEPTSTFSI
Text: Other compounds are based upon agonists and antagonists for CCX CKR, which have been identified and are shown below: […]

[2] = test system: untransfected HEK293 cells; assay: PowerBlot protein expression analysis, untransfected HEK293 cells; type: cell-based, human; conditions: untransfected HEK293 cells contacted with ligand; FIG. 2
Protocol: (§1) Studies were also conducted to assess what effect CCX CKR activity had on protein expression. This was analyzed by determining protein levels for both unstransfected HEK293 cells, and HEK293 cells transfected with CCX CKR, grown both in the presence and absence of the ligands ELC, SLC or TECK. Protein levels were determined using the BD PowerBlot™ technology developed by Becton Dickinson, and available from BD Biosciences Pharmingen. In general, this analysis involves separating proteins in cellular lysates by polyacrylamide electrophoresis and then conducting a Western blot with over 1,000 monoclonal antibodies specific for certain proteins. Antibodies that bind to a protein band on the gel are visualized using a digital camera that detects chemiluminescence from the bound antibody. The amount of protein can be determined based upon the strength of the signal. Further details regarding the application of this technology are discussed by Lorenz, P., et al. Proteomics (2003) 3:991-1002; Malakhov, M. P., et al. (2003) J. Biol. Chem. .278:16608-13; and Yoo, G. H., et al. (2002) Clin Cancer Res. 8:3910-21.
(§2) FIG. 2 provides a chart that provides a comparison of the number of proteins that were increased and decreased under different sets of conditions.

[3] = test system: HEK293 cells transfected with CCX CKR; assay: PowerBlot protein expression analysis, HEK293 cells transfected with CCX CKR; type: cell-based, human; conditions: relative to cells simply transformed with CCX CKR; FIG. 2
Protocol: as §1, §2

CCX CKR [4] = target: T1, CCX CKR; conditions: WO 01/27146; cited from earlier work
[5] = test system: HEK293 cells transfected with CCX CKR; assay: Cell growth curves (hemacytometer counting) of HEK293 cells transfected with CCX CKR; type: cell-based, human; conditions: ligand in growth medium, growth curves over 6 days; FIG. 4
Protocol: Another set of experiments were conducted to ascertain whether CCX CKR plays a role in cell growth. One experiment involved culturing (1) untransfected HEK293 cells (ATCC #CRL 1573) (control), (2) HEK 293 cells transfected with CCX CKR as a polyclonal mixture, and (3) three different clones of HEK293 stably transfected with CCX CKR, thus giving a total of […] different cell cultures. Each of these cultures were obtained by seeding 50,000 cells/well in triplicate. The three different clones (clones 9, 12 and 13) were obtained by a limited dilution of the polyclonal mixture of cells.
Cells were allowed to attach for 12 hours in growth medium (Dulbecco's minimal essential medium with 10% fetal bovine serum), then cultured in the absence of fetal bovine serum for 12 hours to synchronize the cell cycle. Growth medium was then added back to cells, and plates returned to the incubator. Each day for 6 days, cells were removed with trypsin and counted with a hemacytometer.
Another set of experiments were conducted using the same procedure just described to address two issues: (1) whether the autoactive response observed in the first set of experiments was simply a consequence of the transformation process, and (2) to determine what effect ligands had on the ability of CCX CKR to promote cellular growth. […]

Molecule: ELC: chemokine, CCX CKR ligand, also referred to as MIP-3β
Effect on protein expression levels [2]: relatively minor effect on protein expression levels
Change in protein expression on addition of ligand [3]: only a modest change in protein expression
Affinity of CCX CKR for chemokine (CCX CKR [4]): high affinity

B1: TECK: chemokine, CCX CKR ligand (protein, UniProt O15444 24-150, looked up)
C-C motif chemokine 25: QGVFEDCCLAYHYPIGWAVLRRAWTYRIQEVSGSCNLPAAIFYLPKRHRKVCGNPKSREVQRAMKLLDARNKVFAKLHHNTQTFQAGPHAVKKLSSGNSKLSSSKFSNPISSSKRNVSLLISANSGL
Change in protein expression on addition of ligand [3]: only a modest change in protein expression
Affinity of CCX CKR for chemokine (CCX CKR [4]): high affinity
Effect on cell growth [5]: modest effect on cell growth activity, with perhaps even a slight decrease in cell growth

B2: SLC: chemokine, CCX CKR ligand, also referred to as 6-Ckine (protein, UniProt O00585 24-134, looked up)
C-C motif chemokine 21: SDGGAQDCCLKYSQRKIPAKVVRSYRKQEPSLGCSIPAILFLPRKRSQAELCADPKELWVQQLMQHLDKTPSPQKPAQGCRKDRGASKTGKKGKGSKGCKRTERSQTPKGP
Change in protein expression on addition of ligand [3]: only a modest change in protein expression
Affinity of CCX CKR for chemokine (CCX CKR [4]): high affinity

Second part, the molecule after the results:

Modulation of CCX CKR function (agonist or antagonist) (CCX CKR [1]): Compound III (agonist)
Molecule: CCC(c1nc2ccccc2c(=O)n1C)N(Cc1ccco1)C(=O)Nc1cccc(C(F)(F)F)c1 (centres unmarked) [Compound III]

Modulation of CCX CKR function (agonist or antagonist) (CCX CKR [1]): Compound II (antagonist)
Molecule: CC1CCCCN1CCCN(Cc1ccc(OCc2ccccc2)cc1)C(=O)NC12CC3CC(CC(C3)C1)C2 (centres unmarked) [Compound II]

Modulation of CCX CKR function (agonist or antagonist) (CCX CKR [1]): Compound I (antagonist)
Molecule: CC1CCCCN1CCCN(Cc1ccc(OCc2ccccc2)cc1)C(=O)Nc1ccc(Cl)c(Cl)c1 (centres unmarked) [Compound I]
